The record followed here is US20260242419A1, “A CYCLIC PEPTIDE FOR TRAPPING INTERLEUKIN-1 BETA” (Merck Sharp & Dohme LLC, priority 2023, published 2026).

The test has as its target Recombinant human IL-1β (BioLegend 579404) (human, UniProt P01584 117-269). In words: cell-based or functional assay.

Starred links: 1 amine or outer side, 2 acyl side, 3 side chain; linkers in the order of their positions; H or OH if unused. Non-standard residues stand in square brackets, D forms with d. TyrEtNAc = (2S)-3-[4-(2-acetamidoethoxy)phenyl]-2-amino-propanoic acid, CC(=O)NCCOc1ccc(C[C@H](N[*:1])C(=O)[*:2])cc1; dProc3Bn = (2R,3S)-3-benzylpyrrolidine-2-carboxylic acid, O=C([C@H]1[C@@H](Cc2ccccc2)CCN1[*:1])[*:2]; dProc4Bn = (2R,4R)-4-benzylpyrrolidine-2-carboxylic acid, O=C([C@H]1C[C@@H](Cc2ccccc2)CN1[*:1])[*:2]; Phe(4-(5-CO2H-2-pyrimidyl)) = N[C@@H](Cc1ccc(-c2ncc(C(=O)O)cn2)cc1)C(=O)O; Trp(βS-Me,4-F) = C[C@@H](c1c[nH]c2cccc(F)c12)[C@H](N)C(=O)O; 3Aminoazetidine3carboxyl = O=C(C1(N[*:1])CN([*:3])C1)[*:2]; Bip(4'-COOH) = N[C@@H](Cc1ccc(-c2ccc(C(=O)O)cc2)cc1)C(=O)O; Ala(1-bicyclo(1.1.1)pentyl) = N[C@@H](CC12CC(C1)C2)C(=O)O; dPro(4R-Bzl(4-F)) = O=C(O)[C@H]1C[C@@H](Cc2ccc(F)cc2)CN1; Ala(pyrimidin-5-yl) = N[C@@H](Cc1cncnc1)C(=O)O; Phe(4-COOH) = N[C@@H](Cc1ccc(C(=O)O)cc1)C(=O)O; Pro(cis-4-F) = O=C(O)[C@@H]1C[C@H](F)CN1; 2Pal = N[C@@H](Cc1ccccn1)C(=O)O; 4Pal = N[C@@H](Cc1ccncc1)C(=O)O; Orn = NCCC[C@H](N)C(=O)O; Dab = NCC[C@H](N)C(=O)O; Aib = CC(C)(N)C(=O)O

B1: SEQ ID NO: 75 (peptide)
peptide: cyclo([Bip(4'-COOH)][4Pal][Phe(4-COOH)]G[Pro(cis-4-F)][Trp(βS-Me,4-F)][Aib]EW[Aib][Ala(pyrimidin-5-yl)]QRG[dPro(4R-Bzl(4-F))])
SMILES: C[C@@H](c1c[nH]c2cccc(F)c12)[C@@H]1NC(=O)[C@@H]2C[C@H](F)CN2C(=O)CNC(=O)[C@H](Cc2ccc(C(=O)O)cc2)NC(=O)[C@H](Cc2ccncc2)NC(=O)[C@H](Cc2ccc(-c3ccc(C(=O)O)cc3)cc2)NC(=O)[C@H]2C[C@@H](Cc3ccc(F)cc3)CN2C(=O)CNC(=O)[C@H](CCCNC(=N)N)NC(=O)[C@H](CCC(N)=O)NC(=O)[C@H](Cc2cncnc2)NC(=O)C(C)(C)NC(=O)[C@H](Cc2c[nH]c3ccccc23)NC(=O)[C@H](CCC(=O)O)NC(=O)C(C)(C)NC1=O
As to B1, the “MRC5 IC50” value turned out to be 0.056 nM.

B2: SEQ ID NO: 79 (peptide)
peptide: cyclo([TyrEtNAc][4Pal][Phe(4-COOH)][Pro(cis-4-F)][Trp(βS-Me,4-F)][Aib]EW[Aib][Ala(pyrimidin-5-yl)]QSG[dProc4Bn])
SMILES: CC(=O)NCCOc1ccc(C[C@@H]2NC(=O)[C@H]3C[C@@H](Cc4ccccc4)CN3C(=O)CNC(=O)[C@H](CO)NC(=O)[C@H](CCC(N)=O)NC(=O)[C@H](Cc3cncnc3)NC(=O)C(C)(C)NC(=O)[C@H](Cc3c[nH]c4ccccc34)NC(=O)[C@H](CCC(=O)O)NC(=O)C(C)(C)NC(=O)[C@H]([C@@H](C)c3c[nH]c4cccc(F)c34)NC(=O)[C@@H]3C[C@H](F)CN3C(=O)[C@H](Cc3ccc(C(=O)O)cc3)NC(=O)[C@H](Cc3ccncc3)NC2=O)cc1
In the case of B2, the “MRC5 IC50” value amounted to 0.059 nM.

B3: SEQ ID NO: 73 (peptide)
peptide: cyclo([Bip(4'-COOH)][4Pal][Phe(4-COOH)]G[Pro(cis-4-F)][Trp(βS-Me,4-F)][Aib]EW[Aib][2Pal]Q[Dab]G[dPro(4R-Bzl(4-F))])
SMILES: C[C@@H](c1c[nH]c2cccc(F)c12)[C@@H]1NC(=O)[C@@H]2C[C@H](F)CN2C(=O)CNC(=O)[C@H](Cc2ccc(C(=O)O)cc2)NC(=O)[C@H](Cc2ccncc2)NC(=O)[C@H](Cc2ccc(-c3ccc(C(=O)O)cc3)cc2)NC(=O)[C@H]2C[C@@H](Cc3ccc(F)cc3)CN2C(=O)CNC(=O)[C@H](CCN)NC(=O)[C@H](CCC(N)=O)NC(=O)[C@H](Cc2ccccn2)NC(=O)C(C)(C)NC(=O)[C@H](Cc2c[nH]c3ccccc23)NC(=O)[C@H](CCC(=O)O)NC(=O)C(C)(C)NC1=O
Regarding B3, the “MRC5 IC50” value turned out to be 0.031 nM.

B4: SEQ ID NO: 77 (peptide)
peptide: cyclo([TyrEtNAc][4Pal][Phe(4-COOH)][Pro(cis-4-F)][Trp(βS-Me,4-F)][Aib]EW[Aib][Ala(pyrimidin-5-yl)]QSG[dProc3Bn])
SMILES: CC(=O)NCCOc1ccc(C[C@@H]2NC(=O)[C@H]3[C@@H](Cc4ccccc4)CCN3C(=O)CNC(=O)[C@H](CO)NC(=O)[C@H](CCC(N)=O)NC(=O)[C@H](Cc3cncnc3)NC(=O)C(C)(C)NC(=O)[C@H](Cc3c[nH]c4ccccc34)NC(=O)[C@H](CCC(=O)O)NC(=O)C(C)(C)NC(=O)[C@H]([C@@H](C)c3c[nH]c4cccc(F)c34)NC(=O)[C@@H]3C[C@H](F)CN3C(=O)[C@H](Cc3ccc(C(=O)O)cc3)NC(=O)[C@H](Cc3ccncc3)NC2=O)cc1
Turning to B4, the “MRC5 IC50” value worked out at 0.079 nM.

B5: SEQ ID NO: 83 (peptide)
peptide: cyclo([Phe(4-(5-CO2H-2-pyrimidyl))][Ala(1-bicyclo(1.1.1)pentyl)][Phe(4-COOH)]G[Pro(cis-4-F)][Trp(βS-Me,4-F)][Aib]SW[Aib][Ala(pyrimidin-5-yl)]Q[Dab]G[dPro(4R-Bzl(4-F))])
SMILES: C[C@@H](c1c[nH]c2cccc(F)c12)[C@@H]1NC(=O)[C@@H]2C[C@H](F)CN2C(=O)CNC(=O)[C@H](Cc2ccc(C(=O)O)cc2)NC(=O)[C@H](CC23CC(C2)C3)NC(=O)[C@H](Cc2ccc(-c3ncc(C(=O)O)cn3)cc2)NC(=O)[C@H]2C[C@@H](Cc3ccc(F)cc3)CN2C(=O)CNC(=O)[C@H](CCN)NC(=O)[C@H](CCC(N)=O)NC(=O)[C@H](Cc2cncnc2)NC(=O)C(C)(C)NC(=O)[C@H](Cc2c[nH]c3ccccc23)NC(=O)[C@H](CO)NC(=O)C(C)(C)NC1=O
For the molecule B5, the “MRC5 IC50” value turned out to be 0.045 nM.

B6: SEQ ID NO: 80 (peptide)
peptide: cyclo([TyrEtNAc][4Pal][Phe(4-COOH)][Pro(cis-4-F)][Trp(βS-Me,4-F)][Aib]EW[Aib][Ala(pyrimidin-5-yl)]Q[Dab]G[dProc4Bn])
SMILES: CC(=O)NCCOc1ccc(C[C@@H]2NC(=O)[C@H]3C[C@@H](Cc4ccccc4)CN3C(=O)CNC(=O)[C@H](CCN)NC(=O)[C@H](CCC(N)=O)NC(=O)[C@H](Cc3cncnc3)NC(=O)C(C)(C)NC(=O)[C@H](Cc3c[nH]c4ccccc34)NC(=O)[C@H](CCC(=O)O)NC(=O)C(C)(C)NC(=O)[C@H]([C@@H](C)c3c[nH]c4cccc(F)c34)NC(=O)[C@@H]3C[C@H](F)CN3C(=O)[C@H](Cc3ccc(C(=O)O)cc3)NC(=O)[C@H](Cc3ccncc3)NC2=O)cc1
Regarding B6, the “MRC5 IC50” value is 0.048 nM.

B7: SEQ ID NO: 76 (peptide)
peptide: cyclo([Bip(4'-COOH)][4Pal][Phe(4-COOH)]G[Pro(cis-4-F)][Trp(βS-Me,4-F)][Aib]EW[Aib][4Pal]QRG[dPro(4R-Bzl(4-F))])
SMILES: C[C@@H](c1c[nH]c2cccc(F)c12)[C@@H]1NC(=O)[C@@H]2C[C@H](F)CN2C(=O)CNC(=O)[C@H](Cc2ccc(C(=O)O)cc2)NC(=O)[C@H](Cc2ccncc2)NC(=O)[C@H](Cc2ccc(-c3ccc(C(=O)O)cc3)cc2)NC(=O)[C@H]2C[C@@H](Cc3ccc(F)cc3)CN2C(=O)CNC(=O)[C@H](CCCNC(=N)N)NC(=O)[C@H](CCC(N)=O)NC(=O)[C@H](Cc2ccncc2)NC(=O)C(C)(C)NC(=O)[C@H](Cc2c[nH]c3ccccc23)NC(=O)[C@H](CCC(=O)O)NC(=O)C(C)(C)NC1=O
In the case of B7, the “MRC5 IC50” value worked out at 0.059 nM.

B8: SEQ ID NO: 78 (peptide)
peptide: cyclo([TyrEtNAc][4Pal][Phe(4-COOH)][Pro(cis-4-F)][Trp(βS-Me,4-F)][Aib]EW[Aib][Ala(pyrimidin-5-yl)]Q[Dab]G[dProc3Bn])
SMILES: CC(=O)NCCOc1ccc(C[C@@H]2NC(=O)[C@H]3[C@@H](Cc4ccccc4)CCN3C(=O)CNC(=O)[C@H](CCN)NC(=O)[C@H](CCC(N)=O)NC(=O)[C@H](Cc3cncnc3)NC(=O)C(C)(C)NC(=O)[C@H](Cc3c[nH]c4ccccc34)NC(=O)[C@H](CCC(=O)O)NC(=O)C(C)(C)NC(=O)[C@H]([C@@H](C)c3c[nH]c4cccc(F)c34)NC(=O)[C@@H]3C[C@H](F)CN3C(=O)[C@H](Cc3ccc(C(=O)O)cc3)NC(=O)[C@H](Cc3ccncc3)NC2=O)cc1
With B8, the “MRC5 IC50” value turned out to be 0.036 nM.

B9: SEQ ID NO: 8 (peptide)
peptide: cyclo([Bip(4'-COOH)][4Pal][Phe(4-COOH)]G[Pro(cis-4-F)][Trp(βS-Me,4-F)][Aib]EW[Aib][Ala(pyrimidin-5-yl)]Q[Orn]G[dPro(4R-Bzl(4-F))])
SMILES: C[C@@H](c1c[nH]c2cccc(F)c12)[C@@H]1NC(=O)[C@@H]2C[C@H](F)CN2C(=O)CNC(=O)[C@H](Cc2ccc(C(=O)O)cc2)NC(=O)[C@H](Cc2ccncc2)NC(=O)[C@H](Cc2ccc(-c3ccc(C(=O)O)cc3)cc2)NC(=O)[C@H]2C[C@@H](Cc3ccc(F)cc3)CN2C(=O)CNC(=O)[C@H](CCCN)NC(=O)[C@H](CCC(N)=O)NC(=O)[C@H](Cc2cncnc2)NC(=O)C(C)(C)NC(=O)[C@H](Cc2c[nH]c3ccccc23)NC(=O)[C@H](CCC(=O)O)NC(=O)C(C)(C)NC1=O
Take B9: the “MRC5 IC50” value turned out to be 0.026 nM.

B10: SEQ ID NO: 82 (peptide)
peptide: cyclo([Phe(4-(5-CO2H-2-pyrimidyl))][Ala(1-bicyclo(1.1.1)pentyl)][Phe(4-COOH)]G[Pro(cis-4-F)][Trp(βS-Me,4-F)][Aib]EW[Aib][Ala(pyrimidin-5-yl)]Q[Dab]G[dPro(4R-Bzl(4-F))])
SMILES: C[C@@H](c1c[nH]c2cccc(F)c12)[C@@H]1NC(=O)[C@@H]2C[C@H](F)CN2C(=O)CNC(=O)[C@H](Cc2ccc(C(=O)O)cc2)NC(=O)[C@H](CC23CC(C2)C3)NC(=O)[C@H](Cc2ccc(-c3ncc(C(=O)O)cn3)cc2)NC(=O)[C@H]2C[C@@H](Cc3ccc(F)cc3)CN2C(=O)CNC(=O)[C@H](CCN)NC(=O)[C@H](CCC(N)=O)NC(=O)[C@H](Cc2cncnc2)NC(=O)C(C)(C)NC(=O)[C@H](Cc2c[nH]c3ccccc23)NC(=O)[C@H](CCC(=O)O)NC(=O)C(C)(C)NC1=O
As for B10, the “MRC5 IC50” value is 0.054 nM.

B11: SEQ ID NO: 81 (peptide)
peptide: cyclo([Phe(4-(5-CO2H-2-pyrimidyl))][4Pal][Phe(4-COOH)]G[Pro(cis-4-F)][Trp(βS-Me,4-F)][Aib]EW[3Aminoazetidine3carboxyl][4Pal]Q[Dab]G[dPro(4R-Bzl(4-F))])
SMILES: C[C@@H](c1c[nH]c2cccc(F)c12)[C@@H]1NC(=O)[C@@H]2C[C@H](F)CN2C(=O)CNC(=O)[C@H](Cc2ccc(C(=O)O)cc2)NC(=O)[C@H](Cc2ccncc2)NC(=O)[C@H](Cc2ccc(-c3ncc(C(=O)O)cn3)cc2)NC(=O)[C@H]2C[C@@H](Cc3ccc(F)cc3)CN2C(=O)CNC(=O)[C@H](CCN)NC(=O)[C@H](CCC(N)=O)NC(=O)[C@H](Cc2ccncc2)NC(=O)C2(CNC2)NC(=O)[C@H](Cc2c[nH]c3ccccc23)NC(=O)[C@H](CCC(=O)O)NC(=O)C(C)(C)NC1=O
For the molecule B11, the “MRC5 IC50” value was 0.049 nM.

B12: SEQ ID NO: 74 (peptide)
peptide: cyclo([TyrEtNAc][4Pal][Phe(4-COOH)][Pro(cis-4-F)][Trp(βS-Me,4-F)][Aib]EW[Aib]RQ[Dab]G[dPro(4R-Bzl(4-F))])
SMILES: CC(=O)NCCOc1ccc(C[C@@H]2NC(=O)[C@H]3C[C@@H](Cc4ccc(F)cc4)CN3C(=O)CNC(=O)[C@H](CCN)NC(=O)[C@H](CCC(N)=O)NC(=O)[C@H](CCCNC(=N)N)NC(=O)C(C)(C)NC(=O)[C@H](Cc3c[nH]c4ccccc34)NC(=O)[C@H](CCC(=O)O)NC(=O)C(C)(C)NC(=O)[C@H]([C@@H](C)c3c[nH]c4cccc(F)c34)NC(=O)[C@@H]3C[C@H](F)CN3C(=O)[C@H](Cc3ccc(C(=O)O)cc3)NC(=O)[C@H](Cc3ccncc3)NC2=O)cc1
Turning to B12, the “MRC5 IC50” value came to 0.072 nM.
